This is an account of results in IntAct's records for PubMed 21890701.

Sequences and labels used below:
B1: DNA-binding protein H-NS (Escherichia coli (strain K12)), P0ACF8 (parent)
chain: MSEALKILNNIRTLRAQARECTLETLEEMLEKLEVVVNERREEESAAAAEVEERTRKLQQYREMLIADGIDPNELLNSLAAVKSGTKAKRAQRPAKYSYVDENGETKTWTGQGRTPAVIKKAMDEQGKSLDDFLIKQ
partner: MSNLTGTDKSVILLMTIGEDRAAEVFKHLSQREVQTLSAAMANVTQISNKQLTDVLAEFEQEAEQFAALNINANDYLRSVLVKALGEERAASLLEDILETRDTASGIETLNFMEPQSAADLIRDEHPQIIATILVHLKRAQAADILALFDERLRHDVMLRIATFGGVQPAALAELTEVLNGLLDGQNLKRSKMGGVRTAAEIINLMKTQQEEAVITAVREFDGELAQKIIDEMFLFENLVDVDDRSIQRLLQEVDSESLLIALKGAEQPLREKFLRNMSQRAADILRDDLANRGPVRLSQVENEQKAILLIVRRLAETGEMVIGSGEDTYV
B2: Flagellar motor switch protein FliG (Escherichia coli (strain K12)), P0ABZ1 (parent)
chain: B1 partner
partner: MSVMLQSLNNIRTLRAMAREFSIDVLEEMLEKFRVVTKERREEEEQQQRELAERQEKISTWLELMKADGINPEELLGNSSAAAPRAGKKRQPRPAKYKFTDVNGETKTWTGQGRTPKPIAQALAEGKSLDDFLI
B3: Flagellar motor switch protein FliG (Escherichia coli (strain K12)), P0ABZ1 (parent)
chain: B1 partner
partner: B1 chain

In one assay the parent is B1. Particulars: with flig_ecoli fliG, P0ABZ1.
As to MSEALKILNNIRTLRAQARECTLETLEEMLEKLEVVVNERREEESAAAAEVEERTRKLQQYREMLIADGIDPNELLNSLAAVKSGTKAKRAQRPAKYSYVDENGETKTWTGQGWTPAVIKKAMDEQGKSLDDFLIKQ [R114W], the “effect of a mutation on the interaction” value is “decreasing interaction strength”.

In the case of MSEALKILNNIRTLRAQARECTLETLEEMLEKLEVVVNERREEESAAAAEVEERTRKLQQYREMLIADGIDPNELLNSLAAVKSGTKAKRAQRPAKYSYVDENGETKTWTGDGRTPAVIKKAMDEQGKSLDDFLIKQ [Q112D], the “effect of a mutation on the interaction” value was “decreasing interaction”.

MSEALKILNNIRTLRAQARECTLETLEEMLEKLEVVVNERREEESAAAAEVEERTRKLQQYREMLIADGIDPNELLNSLAAVKSGTKAKRAQRPAKYSYVDENGETKTWTGQDRTPAVIKKAMDEQGKSLDDFLIKQ [G113D]: the “effect of a mutation on the interaction” value is on record as “decreasing interaction strength”.

In the next assay the parent is B2. The note with it: with stpa_ecoli stpA.
With MSNLTGTDKSVILLMTIGEDRAAEVFKHLSQREVQTLSAAMANVTQISNKQLTDVLAEFEQEAEQFAALNINANDYLRSVLVKALGEERAASLLEDILETRDTASGIETLNFMEPQSAADLIRDWHPQIIATILVHLKRAQAADILALFDERLRHDVMLRIATFGGVQPAALAELTEVLNGLLDGQNLKRSKMGGVRTAAEIINLMKTQQEEAVITAVREFDGELAQKIIDEMFLFENLVDVDDRSIQRLLQEVDSESLLIALKGAEQPLREKFLRNMSQRAADILRDDLANRGPVRLSQVENEQKAILLIVRRLAETGEMVIGSGEDTYV [E125W], the “effect of a mutation on the interaction” value is listed as “disrupting interaction strength”.

With MSNLTGTDKSVILLMTIGEDRAAEVFKHLSQREVQTLSAAMANVTQISNKQLTDVLAEFEQEAEQFAALNINANDYLRSVLVKALGEERAASLLEDILETRDTASGIETLNFMEPQSAADLIRDEHPQIIATILVHLKRAQAADILALFDERLRHDVMLWIATFGGVQPAALAELTEVLNGLLDGQNLKRSKMGGVRTAAEIINLMKTQQEEAVITAVREFDGELAQKIIDEMFLFENLVDVDDRSIQRLLQEVDSESLLIALKGAEQPLREKFLRNMSQRAADILRDDLANRGPVRLSQVENEQKAILLIVRRLAETGEMVIGSGEDTYV [R160W], the “effect of a mutation on the interaction” value is reported as “disrupting interaction strength”.

Regarding MSNLTGTDKSVILLMTIGEDRAAEVFKHLSQREVQTLSAAMANVTQISNKQLTDVLAEFEQEAEQFAALNINANDYLRSVLVKALGEERAASLLEDILETRDTASGIETLNFMEPQSAADLIRDEWPQIIATILVHLKRAQAADILALFDERLRHDVMLRIATFGGVQPAALAELTEVLNGLLDGQNLKRSKMGGVRTAAEIINLMKTQQEEAVITAVREFDGELAQKIIDEMFLFENLVDVDDRSIQRLLQEVDSESLLIALKGAEQPLREKFLRNMSQRAADILRDDLANRGPVRLSQVENEQKAILLIVRRLAETGEMVIGSGEDTYV [H126W], the “effect of a mutation on the interaction” value is reported as “disrupting interaction strength”.

Another assay covers variants of B3. Particulars: with hns_ecoli hns, P0ACF8.
With MSNLTGTDKSVILLMTIGEDRAAEVFKHLSQREVQTLSAAMANVTQISNKQLTDVLAEFEQEAEQFAALNINANDYLRSVLVKALGEERAASLLEDILETRDTASGIETLNFMEPQSAADLIRDEWPQIIATILVHLKRAQAADILALFDERLRHDVMLRIATFGGVQPAALAELTEVLNGLLDGQNLKRSKMGGVRTAAEIINLMKTQQEEAVITAVREFDGELAQKIIDEMFLFENLVDVDDRSIQRLLQEVDSESLLIALKGAEQPLREKFLRNMSQRAADILRDDLANRGPVRLSQVENEQKAILLIVRRLAETGEMVIGSGEDTYV [H126W], the “effect of a mutation on the interaction” value is “disrupting interaction strength”.

In the case of MSNLTGTDKSVILLMTIGEDRAAEVFKHLSQREVQTLSAAMANVTQISNKQLTDVLAEFEQEAEQFAALNINANDYLRSVLVKALGEERAASLLEDILETRDTASGIETLNFMEPQSAADLIRDEHPWIIATILVHLKRAQAADILALFDERLRHDVMLRIATFGGVQPAALAELTEVLNGLLDGQNLKRSKMGGVRTAAEIINLMKTQQEEAVITAVREFDGELAQKIIDEMFLFENLVDVDDRSIQRLLQEVDSESLLIALKGAEQPLREKFLRNMSQRAADILRDDLANRGPVRLSQVENEQKAILLIVRRLAETGEMVIGSGEDTYV [Q128W], the “effect of a mutation on the interaction” value is “decreasing interaction strength”.

On to MSNLTGTDKSVILLMTIGEDRAAEVFKHLSQREVQTLSAAMANVTQISNKQLTDVLAEFEQEAEQFAALNINANDYLRSVLVKALGEERAASLLEDILETRDTASGIETLNFMEPQSAADLIRDWHPQIIATILVHLKRAQAADILALFDERLRHDVMLRIATFGGVQPAALAELTEVLNGLLDGQNLKRSKMGGVRTAAEIINLMKTQQEEAVITAVREFDGELAQKIIDEMFLFENLVDVDDRSIQRLLQEVDSESLLIALKGAEQPLREKFLRNMSQRAADILRDDLANRGPVRLSQVENEQKAILLIVRRLAETGEMVIGSGEDTYV [E125W], for which the “effect of a mutation on the interaction” value is recorded as “decreasing interaction strength”.

With MSNLTGTDKSVILLMTIGEDRAAEVFKHLSQREVQTLSAAMANVTQISNKQLTDVLAEFEQEAEQFAALNINANDYLRSVLVKALGEERAASLLEDILETRDTASGIETLNFMEPQSAADLIRDEHPQIIATILVHLKRAQAADILALFDERLRHDVMLWIATFGGVQPAALAELTEVLNGLLDGQNLKRSKMGGVRTAAEIINLMKTQQEEAVITAVREFDGELAQKIIDEMFLFENLVDVDDRSIQRLLQEVDSESLLIALKGAEQPLREKFLRNMSQRAADILRDDLANRGPVRLSQVENEQKAILLIVRRLAETGEMVIGSGEDTYV [R160W], the “effect of a mutation on the interaction” value is reported as “disrupting interaction strength”.
